Data on one protein can be found in paper PMC7343719, “Immobilization of the Highly Active UDP-Glucose Pyrophosphorylase From Thermocrispum agreste Provides a Highly Efficient Biocatalyst for the Production of UDP-Glucose” (Frontiers in Bioengineering and Biotechnology, 2020).

Substrate in data set [1]: O=P(O)(O)O[C@H]1O[C@H](CO)[C@@H](O)[C@H](O)[C@H]1O
The experiment in a line: purified protein. The format is biochemical, Thermocrispum agreste. Conditions: free enzyme, 0.01-45 mM G1P, 2 mM UTP, 3 mM MgCl2, 50 mM Hepes, pH 7.0, 50°C.

Substrate in data set [2]: O=c1ccn([C@@H]2O[C@H](COP(=O)(O)OP(=O)(O)OP(=O)(O)O)[C@@H](O)[C@H]2O)c(=O)[nH]1
In words: purified protein. Format: biochemical, Thermocrispum agreste. Conditions: free enzyme, 0.05-6 mM UTP, 30 mM G1P, 3 mM MgCl2, 50 mM Hepes, pH 7.0, 50°C.

B1: TaGalU (Thermocrispum agreste) (protein)
chain: MTASAEHQTFTTAIVPAAGLGTRFLPTTKSVPKELLPVVDTPAIELVADEARQAGAERLVIVTSPAKQSIAAYFRPAPELERSLEEKGKTGQLAKIRRAPELLEVEVAIQEQALGLGHAVACAEPNLGPEDDVVAVLLPDDLVLPHGILERMAKVRAEHGGSVLCAFDIPKEEISAYGVFDVSDTDDADVKRVHGMVEKPPAEQAPSTFAAAGRYLLDRAIFDALRRIEPGAGGELQLTDAVALLIQEGHPVHVVVHRGVRHDLGNPGDFLRAAVDFALQDPDYGPELRAWLTDRIARP
notes: full-length, N-terminal His10 tag (pET16bP, no cleavage mentioned), codon-optimized gene (911 bp insert), expressed in E. coli BL21(DE3) pLysS; theoretical mass 33,678 Da; hexamer of about 193 kDa by SEC; EC 2.7.7.9
B1: in data set [1], the Michaelis constant (Km) was 440 µM, the Vmax amounted to 1110 µmol/min/mg, the kcat is 598 s⁻¹ and the kcat/Km was found to be 1.36e+06 M⁻¹ s⁻¹. Moreover, in data set [2], the Michaelis-Menten constant (Km) turned out to be 150 µM, the Vmax was 1700 µmol/min/mg, the kcat stood at 914 s⁻¹ and the kcat/Km came to 6.09e+06 M⁻¹ s⁻¹.
